{
  "source": "patent US20160136262A1",
  "binders": {"B1": {"name": "CR6261 (antibody, V domains shown)", "VH": "EVQLVESGAEVKKPGSSVKVSCKASGGPFRSYAISWVRQAPGQGPEWMGGIIPIFGTTKYAPKFQGRVTITADDFAGTVYMELSSLRSEDTAMYYCAKHMGYQVRETMDVWGKGTTVTVSS", "VL": "QSVLTQPPSVSAAPGQKVTISCSGSSSNIGNDYVSWYQQLPGTAPKLLIYDNNKRPSGIPDRFSGSKSGTSATLGITGLQTGDEANYYCATWDRRPTAYVVFGGGTKLTVLG"}},
  "key": {"[1]": {"molecular_target": "T1, H1-mini2-cluster1+5+6-GCN4 without leader sequence and with FLAG-thrombin-foldon-HIS (SEQ ID NO: 6)", "assay": "ELISA/HTRF ratio, reference itself", "conditions": "remark: other sources report otherwise"}, "[2]": {"molecular_target": "T1, H1-mini2-cluster1+5+6-GCN4 without …", "assay": "ELISA signal over HTRF expression signal; average (AV)", "conditions": "remark: other sources report otherwise"}},
  "data": [
    {"binder": "B1", "values": [
      {"measurement": "fold increase of ratio over parental H1 mini-HA", "setting": "[1]", "value": 1, "unit": "fold"},
      {"measurement": "ratio binding/HTRF signal", "setting": "[2]", "value": 5.94}
    ]}
  ]
}
